Results as given in patent US5721126.

Target: T1, ScaI restriction endonuclease (Streptomyces caespitosus) (UniProt O52691)
T1 sequence: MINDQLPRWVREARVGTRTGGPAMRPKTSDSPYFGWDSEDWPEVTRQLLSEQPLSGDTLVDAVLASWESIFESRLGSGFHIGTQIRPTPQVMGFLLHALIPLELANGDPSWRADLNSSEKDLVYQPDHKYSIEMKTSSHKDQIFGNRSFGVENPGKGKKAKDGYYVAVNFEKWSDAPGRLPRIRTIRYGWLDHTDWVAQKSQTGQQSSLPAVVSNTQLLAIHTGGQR
Experiment: cleavage_in_vitro
Conditions: diluted cell extract, 1 ug DNA, 37 C, 1 h

## lambda DNA (ScaI sites)
  activity (units/g wet cells): 1e+06
